From paper PMC6595180

Experiments:
[1] = molecular target: BG505 SOSIP.664 gp140 trimer (HIV-1 (BG505)); assay: AUC; sedimentation velocity, 20°C, 40,000 rpm, detection at 280 nm, 0.5 mg/mL in formulation buffer (20 mM Tris, 100 mM NaCl pH 7.5); continuous c(s) distribution; also after 0, 1 and 5 freeze-thaw cycles
[2] = molecular target: BG505 SOSIP.v4.1-GT1.1 gp140 trimer (HIV-1 (BG505)); assay: as above

Substance | stoichiometry N [1] | stoichiometry N [2]
BG505 SOSIP.664 gp140 trimer (complex) | 3 | –
BG505 SOSIP.v4.1-GT1.1 gp140 trimer (complex) | – | 3
